These substances were tested against HLA-A*02:01 (Homo sapiens, UniProt P04439, D140Y/D185E/D98H/E176V/E277Q/G131W/G231S/I119V/I121R/I166T/I218V/L300P/L318F/N151K/N90K/P208A/P217A/Q86G/Q94H/R138H/R169H/T345S) (assay: MHC binding assay (UV-ligand exchange, ELISA, peptide exchange yield)). Conditions: binding of HLA-class I restricted peptides to HLA-A*02:01.
Description: Candidate peptides for T cell based therapies according to the present invention were further tested for their MHC binding capacity (affinity). The individual peptide-MHC complexes were produced by UV-ligand exchange, where a UV-sensitive peptide is cleaved upon UV-irradiation, and exchanged with the peptide of interest as analyzed. Only peptide candidates that can effectively bind and stabilize the peptide-receptive MHC molecules prevent dissociation of the MHC complexes. To determine the yield of the exchange reaction, an ELISA was performed based on the detection of the light chain ([…]) of stabilized MHC complexes. The assay was performed as generally described in Rodenko et al. (Rodenko et al., 2006).
96 well MAXISorp plates (NUNC) were coated over night with 2-ug/ml streptavidin in PBS at room temperature, washed 4× and blocked for 1 h at 37° C. in 2% BSA containing blocking buffer. […] Peptide-MHC monomers of the UV-exchange reaction were diluted 100 fold in blocking buffer. Samples were incubated for 1 h at 37° C., washed four times, incubated with 2-ug/ml HRP conjugated anti-β2m for 1 h at 37° C., washed again and detected with TMB solution that is stopped with […]. Absorption was measured at 450 nm. Candidate peptides that show a high exchange yield (preferably higher than 50%, most preferred higher than 75%) are generally preferred for a generation and production of antibodies or fragments thereof, and/or T cell receptors or fragments thereof, as they show sufficient avidity to the MHC molecules and prevent dissociation of the MHC complexes.

Peptide exchange (MHC class I binding score, peptide exchange yield)	Substance
″+++″ (≥50% = +++)	1 (SLMEPPAVLLL; listed as Homo sapiens) [compound 1]
″++++″ (≥75% = ++++)	7 (SLVGLLLYL; listed as Homo sapiens) [compound 7]
″+++″ (≥50% = +++)	12 (SLWPDPMEV; listed as Homo sapiens) [compound 12]
″+++″ (≥50% = +++)	13 (YLMDESLNL; listed as Homo sapiens) [compound 13]
″++″ (≥20% = ++)	15 (VLLTFKIFL; listed as Homo sapiens) [compound 15]
″+++″ (≥50% = +++)	17 (GLLPGDRLVSV; listed as Homo sapiens) [compound 17]
″++″ (≥20% = ++)	24 (SLSDGLEEV; listed as Homo sapiens) [compound 24]
″+++″ (≥50% = +++)	26 (ALLELAEEL; listed as Homo sapiens) [compound 26]
″+++″ (≥50% = +++)	30 (LILDWVPYI; listed as Homo sapiens) [compound 30]
″++″ (≥20% = ++)	33 (VLLSLLEKV; listed as Homo sapiens) [compound 33]
″+++″ (≥50% = +++)	35 (KINDTIYEV; listed as Homo sapiens) [compound 35]
″+++″ (≥50% = +++)	40 (TLLVKVFSV; listed as Homo sapiens) [compound 40]
″+++″ (≥50% = +++)	41 (SLMPHIPGL; listed as Homo sapiens) [compound 41]
″++″ (≥20% = ++)	43 (VLSSLEINI; listed as Homo sapiens) [compound 43]
″++″ (≥20% = ++)	44 (ILDPISSGFLL; listed as Homo sapiens) [compound 44]
″+++″ (≥50% = +++)	46 (ILTEENIHL; listed as Homo sapiens) [compound 46]
″+++″ (≥50% = +++)	49 (YLPAVFEEV; listed as Homo sapiens) [compound 49]
″+++″ (≥50% = +++)	50 (SLSELEALM; listed as Homo sapiens) [compound 50]
″++++″ (≥75% = ++++)	53 (KMIETDILQKV; listed as Homo sapiens) [compound 53]
″+++″ (≥50% = +++)	57 (TLAELQPPVQL; listed as Homo sapiens) [compound 57]
″+++″ (≥50% = +++)	59 (IMEDIILTL; listed as Homo sapiens) [compound 59]
″++++″ (≥75% = ++++)	60 (SLTIDGIYYV; listed as Homo sapiens) [compound 60]
″+++″ (≥50% = +++)	67 (TLLAEALVTV; listed as Homo sapiens) [compound 67]
″++++″ (≥75% = ++++)	68 (SLMELPRGLFL; listed as Homo sapiens) [compound 68]

Continued, substance first:

Substance	Peptide exchange (MHC class I binding score, peptide exchange yield)
4 (GIMEHITKI; listed as Homo sapiens) [compound 4]	″++++″ (≥75% = ++++)
5 (HLTEVYPEL; listed as Homo sapiens) [compound 5]	″+++″ (≥50% = +++)
6 (VLVSDGVHSV; listed as Homo sapiens) [compound 6]	″+++″ (≥50% = +++)
9 (GAAKDLPGV; listed as Homo sapiens) [compound 9]	″++″ (≥20% = ++)
10 (FLATFPLAAV; listed as Homo sapiens) [compound 10]	″++++″ (≥75% = ++++)
14 (AAYGGLNEKSFV; listed as Homo sapiens) [compound 14]	″+++″ (≥50% = +++)
16 (VLFQGQASL; listed as Homo sapiens) [compound 16]	″+++″ (≥50% = +++)
18 (YLVAKLVEV; listed as Homo sapiens) [compound 18]	″++″ (≥20% = ++)
19 (FMVDNEAIYDI; listed as Homo sapiens) [compound 19]	″++++″ (≥75% = ++++)
20 (RMIEYFIDV; listed as Homo sapiens) [compound 20]	″+++″ (≥50% = +++)
21 (VLDELDMEL; listed as Homo sapiens) [compound 21]	″++″ (≥20% = ++)
22 (IMEENPGIFAV; listed as Homo sapiens) [compound 22]	″+++″ (≥50% = +++)
23 (VLLDDIFAQL; listed as Homo sapiens) [compound 23]	″+++″ (≥50% = +++)
25 (FLPDEPYIKV; listed as Homo sapiens) [compound 25]	″+++″ (≥50% = +++)
27 (ILADIVISA; listed as Homo sapiens) [compound 27]	″+++″ (≥50% = +++)
28 (QLLDETSAITL; listed as Homo sapiens) [compound 28]	″+++″ (≥50% = +++)
29 (KMLGIPISNILMV; listed as Homo sapiens) [compound 29]	″+++″ (≥50% = +++)
31 (YLAPELFVNV; listed as Homo sapiens) [compound 31]	″++″ (≥20% = ++)
32 (KLDDLTQDLTV; listed as Homo sapiens) [compound 32]	″++″ (≥20% = ++)

Substance	Peptide exchange (MHC class I binding score, peptide exchange yield)
34 (ILVEADSLWVV; listed as Homo sapiens) [compound 34]	″+++″ (≥50% = +++)
39 (SVAPNLPAV; listed as Homo sapiens) [compound 39]	″+++″ (≥50% = +++)
42 (VLLQKIVSA; listed as Homo sapiens) [compound 42]	″+++″ (≥50% = +++)
45 (SLWQDIPDV; listed as Homo sapiens) [compound 45]	″+++″ (≥50% = +++)
47 (ILLSVPLLVV; listed as Homo sapiens) [compound 47]	″++″ (≥20% = ++)
51 (LLPDLEFYV; listed as Homo sapiens) [compound 51]	″++++″ (≥75% = ++++)
52 (FLLAHGLGFLL; listed as Homo sapiens) [compound 52]	″++++″ (≥75% = ++++)
54 (SLLEQGKEPWMV; listed as Homo sapiens) [compound 54]	″+++″ (≥50% = +++)
55 (SLLDLETLSL; listed as Homo sapiens) [compound 55]	″++++″ (≥75% = ++++)
61 (FLQGYQLHL; listed as Homo sapiens) [compound 61]	″++++″ (≥75% = ++++)
62 (VLLDVSAGQLLM; listed as Homo sapiens) [compound 62]	″++++″ (≥75% = ++++)
63 (YLLPSGGSVTL; listed as Homo sapiens) [compound 63]	″++″ (≥20% = ++)
64 (YAAPGGLIGV; listed as Homo sapiens) [compound 64]	″++″ (≥20% = ++)
66 (FLDENIGGVAV; listed as Homo sapiens) [compound 66]	″+++″ (≥50% = +++)
69 (FQLDPSSGVLVTV; listed as Homo sapiens) [compound 69]	″+++″ (≥50% = +++)
70 (GLLDYPVGV; listed as Homo sapiens) [compound 70]	″+++″ (≥50% = +++)
71 (GILARIASV; listed as Homo sapiens) [compound 71]	″+++″ (≥50% = +++)
72 (SLLELDGINL; listed as Homo sapiens) [compound 72]	″+++″ (≥50% = +++)
73 (NIFDLQIYV; listed as Homo sapiens) [compound 73]	″+++″ (≥50% = +++)

— US10227388B2, “Peptides and combination of peptides for use in immunotherapy against non-small cell lung cancer and other cancers” (immatics biotechnologies GmbH, priority 2015, dated 2019)
